Biological target: YU2-gp120 (HIV-1 group M subtype B, isolate YU-2, UniProt P35961)
Test: ELISA

B1: 3BNC60 (antibody, V domains shown)
VH: QVHLSQSGAAVTKPGASVRVSCEASGYKISDHFIHWWRQAPGQGLQWVGWINPKTGQPNNPRQFQGRVSLTRQASWDFDTYSFYMDLKAVRSDDTAIYFCARQRSDFWDFDVWGSGTQVTVSS
VL: DIQMTQSPSSLSARVGDTVTITCQANGYLNWYQQRRGKAPKLLIYDGSKLERGVPARFSGRRWGQEYNLTINNLQPEDVATYFCQVYEFIVPGTRLDLK
binding result: binds

B2: NIH45-46 (antibody, V domains shown)
VH: QVRLSQSGGQMKKPGESMRLSCRASGYEFLNCPINWIRLAPGRRPEWMGWLKPRGGAVNYARKFQGRVTMTRDVYSDTAFLELRSLTSDDTAVYFCTRGKYCTARDYYNWDFEHWGRGAPVTVSS
VL: EIVLTQSPATLSLSPGETAIISCRTSQSGSLAWYQQRPGQAPRLVIYSGSTRAAGIPDRFSGSRWGADYNLSISNLESGDFGVYYCQQYEFFGQGTKVQVD
binding result: binds

Source: paper PMC3351836 (Science (New York, N.y.), 2011)
